Laboratory results from patent publication EP4506361A1 (Biotheus Inc., dated 2025).

Legend:
[1] = target: cynomolgus monkey c-Met protein (purchased from AcroBiosystems) (cynomolgus monkey, UniProt A0A2K5UM36 25-932); test: BLI (ForteBio), antibody on AHQ sensor, cynomolgus monkey c-Met protein in solution
[2] = target: T1, human c-Met on HEK293T cells overexpressing human c-Met (HEK293-Hu c-Met) (human, UniProt P08581 25-1390); test: flow cytometry on HEK293-Hu c-Met cells
T1 construct: whole, on cells; also called human c-Met overexpression cells
T1 sequence (P08581 25-1390): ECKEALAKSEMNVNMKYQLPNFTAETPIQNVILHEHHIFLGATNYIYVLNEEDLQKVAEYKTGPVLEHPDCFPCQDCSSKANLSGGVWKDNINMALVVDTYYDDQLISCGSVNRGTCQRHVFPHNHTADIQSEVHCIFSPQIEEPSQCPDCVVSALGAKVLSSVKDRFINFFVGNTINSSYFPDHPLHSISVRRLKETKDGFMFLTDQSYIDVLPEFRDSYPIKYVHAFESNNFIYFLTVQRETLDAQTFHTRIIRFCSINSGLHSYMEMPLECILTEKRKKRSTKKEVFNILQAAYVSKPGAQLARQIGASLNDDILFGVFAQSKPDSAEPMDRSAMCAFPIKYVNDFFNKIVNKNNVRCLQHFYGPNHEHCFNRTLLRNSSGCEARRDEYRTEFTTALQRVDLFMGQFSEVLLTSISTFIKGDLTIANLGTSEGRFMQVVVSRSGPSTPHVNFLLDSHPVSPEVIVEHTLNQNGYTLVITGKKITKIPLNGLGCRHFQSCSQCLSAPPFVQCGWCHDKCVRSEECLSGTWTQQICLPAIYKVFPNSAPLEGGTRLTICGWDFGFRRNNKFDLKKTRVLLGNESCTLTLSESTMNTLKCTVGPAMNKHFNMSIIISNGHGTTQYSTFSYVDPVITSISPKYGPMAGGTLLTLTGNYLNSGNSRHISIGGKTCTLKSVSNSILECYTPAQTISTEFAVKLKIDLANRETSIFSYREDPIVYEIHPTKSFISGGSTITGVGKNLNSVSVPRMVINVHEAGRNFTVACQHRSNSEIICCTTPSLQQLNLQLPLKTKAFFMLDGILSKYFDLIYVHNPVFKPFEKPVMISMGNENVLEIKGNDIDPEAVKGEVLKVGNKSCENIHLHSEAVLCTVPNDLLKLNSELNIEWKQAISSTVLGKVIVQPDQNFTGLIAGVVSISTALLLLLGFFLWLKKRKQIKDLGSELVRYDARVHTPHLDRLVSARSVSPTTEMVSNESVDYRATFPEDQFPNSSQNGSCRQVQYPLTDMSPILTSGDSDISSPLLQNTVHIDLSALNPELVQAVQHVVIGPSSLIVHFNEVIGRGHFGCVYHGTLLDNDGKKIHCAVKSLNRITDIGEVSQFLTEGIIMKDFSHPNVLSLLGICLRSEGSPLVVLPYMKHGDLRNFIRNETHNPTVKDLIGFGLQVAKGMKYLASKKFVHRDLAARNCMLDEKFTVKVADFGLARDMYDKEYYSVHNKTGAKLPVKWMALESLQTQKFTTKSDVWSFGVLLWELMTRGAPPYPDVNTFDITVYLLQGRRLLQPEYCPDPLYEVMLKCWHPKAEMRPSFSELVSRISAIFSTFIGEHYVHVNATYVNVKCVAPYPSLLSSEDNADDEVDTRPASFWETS

[3] = target: T2, human c-Met protein (purchased from AcroBiosystems) (human, UniProt P08581 25-932); test: BLI (ForteBio), antibody on AHQ sensor, 100 nM human c-Met antigen, 1:1 model
T2 construct: Soluble antigen of the ForteBio assay; also called human c-Met antigen
T2 sequence (P08581 25-932 limits assumed): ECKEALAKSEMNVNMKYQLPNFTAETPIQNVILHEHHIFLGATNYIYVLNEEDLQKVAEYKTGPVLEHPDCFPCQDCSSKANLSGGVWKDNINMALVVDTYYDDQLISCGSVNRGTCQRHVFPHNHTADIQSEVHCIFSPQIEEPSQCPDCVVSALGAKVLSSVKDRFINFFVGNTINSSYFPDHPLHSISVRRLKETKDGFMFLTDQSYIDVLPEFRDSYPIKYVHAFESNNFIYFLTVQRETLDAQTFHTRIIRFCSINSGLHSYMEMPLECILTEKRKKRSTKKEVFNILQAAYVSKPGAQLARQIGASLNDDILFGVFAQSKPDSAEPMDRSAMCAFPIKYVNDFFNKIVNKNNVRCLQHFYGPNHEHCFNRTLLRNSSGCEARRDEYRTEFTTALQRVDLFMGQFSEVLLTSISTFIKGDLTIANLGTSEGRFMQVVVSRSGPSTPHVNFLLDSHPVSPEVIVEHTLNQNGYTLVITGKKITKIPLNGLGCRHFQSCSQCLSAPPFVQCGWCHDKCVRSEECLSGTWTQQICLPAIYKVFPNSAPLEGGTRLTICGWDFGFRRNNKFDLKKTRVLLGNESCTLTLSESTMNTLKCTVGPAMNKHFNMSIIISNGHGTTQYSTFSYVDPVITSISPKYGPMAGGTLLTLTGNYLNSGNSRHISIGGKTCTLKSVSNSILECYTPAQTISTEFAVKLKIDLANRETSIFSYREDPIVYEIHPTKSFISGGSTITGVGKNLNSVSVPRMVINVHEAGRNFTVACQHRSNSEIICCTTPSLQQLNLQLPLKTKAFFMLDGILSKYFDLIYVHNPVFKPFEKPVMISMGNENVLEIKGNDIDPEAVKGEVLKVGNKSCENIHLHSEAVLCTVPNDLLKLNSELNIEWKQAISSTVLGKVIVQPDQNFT

[4] = target: T3, rhesus c-Met on HEK293T cells overexpressing rhesus c-Met (HEK293-Rhe c-Met) (rhesus monkey, UniProt F7H1K4 25-1381); test: flow cytometry on HEK293-Rhe c-Met cells
T3 construct: also called rhesus monkey c-Met
T3 sequence (F7H1K4 entry or part of it limits assumed, form in doubt): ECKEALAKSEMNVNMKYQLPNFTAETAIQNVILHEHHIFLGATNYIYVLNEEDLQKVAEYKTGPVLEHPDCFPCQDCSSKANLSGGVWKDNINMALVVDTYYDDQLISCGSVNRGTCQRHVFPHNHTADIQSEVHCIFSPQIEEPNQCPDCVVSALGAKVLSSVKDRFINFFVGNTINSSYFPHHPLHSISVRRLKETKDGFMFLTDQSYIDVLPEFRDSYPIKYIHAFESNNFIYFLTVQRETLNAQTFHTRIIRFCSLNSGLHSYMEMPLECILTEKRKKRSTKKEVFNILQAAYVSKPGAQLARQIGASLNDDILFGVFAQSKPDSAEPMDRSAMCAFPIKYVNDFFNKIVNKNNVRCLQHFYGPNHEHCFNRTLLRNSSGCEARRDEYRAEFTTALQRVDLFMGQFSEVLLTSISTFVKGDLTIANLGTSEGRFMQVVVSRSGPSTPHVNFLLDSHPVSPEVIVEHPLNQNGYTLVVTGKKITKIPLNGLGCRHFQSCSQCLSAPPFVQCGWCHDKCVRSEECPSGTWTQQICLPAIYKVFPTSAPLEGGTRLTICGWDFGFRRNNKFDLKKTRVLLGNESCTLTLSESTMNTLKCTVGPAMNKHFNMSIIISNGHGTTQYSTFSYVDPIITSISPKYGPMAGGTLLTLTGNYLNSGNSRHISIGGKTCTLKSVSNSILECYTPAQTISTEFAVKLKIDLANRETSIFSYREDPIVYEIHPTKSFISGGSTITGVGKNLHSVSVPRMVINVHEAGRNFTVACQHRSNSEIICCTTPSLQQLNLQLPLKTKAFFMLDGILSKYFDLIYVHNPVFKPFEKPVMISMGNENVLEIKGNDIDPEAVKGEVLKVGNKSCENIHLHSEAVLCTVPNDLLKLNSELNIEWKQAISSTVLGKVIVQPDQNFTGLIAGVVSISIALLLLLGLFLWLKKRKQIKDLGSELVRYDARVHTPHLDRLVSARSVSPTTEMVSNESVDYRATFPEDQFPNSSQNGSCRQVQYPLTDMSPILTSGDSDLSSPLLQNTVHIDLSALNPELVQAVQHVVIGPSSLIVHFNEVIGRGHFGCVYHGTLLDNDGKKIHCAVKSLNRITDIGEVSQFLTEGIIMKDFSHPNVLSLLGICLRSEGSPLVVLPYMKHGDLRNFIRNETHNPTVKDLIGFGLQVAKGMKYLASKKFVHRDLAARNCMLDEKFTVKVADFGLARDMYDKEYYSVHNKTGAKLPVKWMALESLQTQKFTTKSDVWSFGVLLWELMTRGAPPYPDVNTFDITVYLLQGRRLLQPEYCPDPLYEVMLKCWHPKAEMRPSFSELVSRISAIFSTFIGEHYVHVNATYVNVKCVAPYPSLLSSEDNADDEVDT

[5] = target: T3, rhesus c-Met on HEK293T cells …; test: flow cytometry on HEK293-Rhe c-Met cells, first EC50 column
[6] = target: T1, human c-Met on HEK293T cells …; test: flow cytometry on HEK293-Hu c-Met cells, first EC50 column

Chain of cynomolgus monkey c-Met protein (purchased from AcroBiosystems) (A0A2K5UM36 entry or part of it limits assumed, form in doubt): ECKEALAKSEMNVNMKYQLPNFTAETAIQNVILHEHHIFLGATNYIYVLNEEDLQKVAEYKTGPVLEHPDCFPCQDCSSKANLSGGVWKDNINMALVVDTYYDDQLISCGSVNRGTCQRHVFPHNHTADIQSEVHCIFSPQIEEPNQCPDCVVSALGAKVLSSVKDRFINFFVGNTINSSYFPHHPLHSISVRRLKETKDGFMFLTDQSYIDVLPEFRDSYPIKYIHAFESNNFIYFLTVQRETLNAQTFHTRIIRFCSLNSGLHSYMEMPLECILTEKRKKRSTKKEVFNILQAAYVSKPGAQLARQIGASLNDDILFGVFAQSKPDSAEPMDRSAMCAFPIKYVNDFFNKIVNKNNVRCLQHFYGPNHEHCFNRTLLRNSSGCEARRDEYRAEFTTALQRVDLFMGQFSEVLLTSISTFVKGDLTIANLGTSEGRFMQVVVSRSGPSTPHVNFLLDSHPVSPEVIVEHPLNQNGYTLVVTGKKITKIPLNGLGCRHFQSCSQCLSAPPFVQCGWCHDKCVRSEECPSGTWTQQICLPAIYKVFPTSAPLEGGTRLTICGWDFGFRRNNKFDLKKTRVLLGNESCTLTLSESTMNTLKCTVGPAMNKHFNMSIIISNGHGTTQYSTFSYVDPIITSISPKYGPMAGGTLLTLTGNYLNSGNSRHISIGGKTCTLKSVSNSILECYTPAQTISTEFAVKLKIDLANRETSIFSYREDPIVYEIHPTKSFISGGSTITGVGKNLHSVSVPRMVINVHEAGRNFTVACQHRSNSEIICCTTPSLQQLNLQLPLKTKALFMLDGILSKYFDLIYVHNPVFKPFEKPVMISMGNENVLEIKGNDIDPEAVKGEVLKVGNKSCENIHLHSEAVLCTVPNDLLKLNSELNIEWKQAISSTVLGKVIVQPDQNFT

Binder | Kd [1] [nM] | koff [1] [s⁻¹] | kon [1] [M⁻¹ s⁻¹] | EC50 [2] [nM] | Kd [3] [nM] | koff [3] [s⁻¹] | kon [3] [M⁻¹ s⁻¹] | EC50 [4] [nM] | EC50 [5] [nM] | EC50 [6] [nM]
anti-c-Met single-arm antibody 221 (antibody, human IgG1, kappa, L234A L235A) heavy: not shown light: EIVLTQSPGTLSLSPGERATLSCRASQSVSSSYLAWYQQKPGQAPRLLIYGPSSRATGIPDRFSGSGSGTDFTLTISSLQPADFASYYCQQSYITPYTFGQGTKVEIKRTVAAPSVFIFPPSDEQLKSGTASVVCLLNNFYPREAKVQWKVDNALQSGNSQESVTEQDSKDSTYSLSSTLTLSKADYEKHKVYACEVTHQGLSSPVTKSFNRGEC not shown | 63.8 | 0.00192 | 30100 | 1.73 | 2.01 | 0.00037 | 184000 | 1.48 | – | –
anti-c-Met single-arm antibody 223 (antibody, human IgG1, kappa, L234A L235A) heavy: not shown light: DIQLTQSPSSLSASVGDRVTITCRASQSIITYLNWYQQKPGKAPKLLIYAASSLQSGVPSRFSGSGSGTDFTLNISSLQPEDFATYYCQQANSLPYTFGQGTKVEIKRTVAAPSVFIFPPSDEQLKSGTASVVCLLNNFYPREAKVQWKVDNALQSGNSQESVTEQDSKDSTYSLSSTLTLSKADYEKHKVYACEVTHQGLSSPVTKSFNRGEC not shown | 16.2 | 0.00109 | 67300 | 0.765 | 9.76 | 0.00163 | 167000 | 1.06 | – | –
anti-c-Met single-arm antibody 23 (antibody, human IgG1, kappa, L234A L235A) heavy: not shown light: DIVMTQSPSSLSASVGDRVTITCRASQSFSDYLNWYRQKPGKAPKLLLFAASSLQSGVPSRFSGSGSGTDFTLTISSLQPEDFATYYCQQSYSPPYTFGQGTKLEIKRTVAAPSVFIFPPSDEQLKSGTASVVCLLNNFYPREAKVQWKVDNALQSGNSQESVTEQDSKDSTYSLSSTLTLSKADYEKHKVYACEVTHQGLSSPVTKSFNRGEC not shown | 26.5 | 0.00151 | 56900 | – | 0.596 | 9.5e-05 | 160000 | – | 0.746 | 0.821
anti-c-Met single-arm antibody 22 (antibody, human IgG1, kappa, L234A L235A) heavy: not shown light: DIVMTQSPSSVSASVGDRVTITCRASQGISSWLAWYQQKPGKAPKLLIYAASSLQSGVPSKFSGSGSGTEFTLTISSLQPEDFATYFCQQAYGFPLTFGGGTKVEIKRTVAAPSVFIFPPSDEQLKSGTASVVCLLNNFYPREAKVQWKVDNALQSGNSQESVTEQDSKDSTYSLSSTLTLSKADYEKHKVYACEVTHQGLSSPVTKSFNRGEC not shown | 19 | 0.00259 | 136000 | – | 4.29 | 0.000548 | 128000 | – | 0.726 | 0.947
anti-c-Met single-arm antibody 136 (antibody, human IgG1, kappa, L234A L235A) heavy: not shown light: DIVMTQSPSSVSASVGDRVTITCRASQGISSWLAWYQQKPGKAPKLLIYAVSSLQSGVPSRFSGSGSGTDFTLTISSLQPEDFATYFCQQANSFPLTFGGGTKVEIKRTVAAPSVFIFPPSDEQLKSGTASVVCLLNNFYPREAKVQWKVDNALQSGNSQESVTEQDSKDSTYSLSSTLTLSKADYEKHKVYACEVTHQGLSSPVTKSFNRGEC not shown | 1.16 | 0.000426 | 369000 | – | 0.0293 | 6.71e-06 | 229000 | – | 0.306 | 0.452
anti-c-Met single-arm antibody 187 (antibody, human IgG1, kappa, L234A L235A) heavy: not shown light: DIVMTQSPSSVSASVGDRVTITCRASQGISSWLAWYQQKPGKAPNLLIYAASNLPSGVPSRFSGSGSGTVFTLTISSLQPEDFATYYCQQSNSFPLTFGGGTKVEIKRTVAAPSVFIFPPSDEQLKSGTASVVCLLNNFYPREAKVQWKVDNALQSGNSQESVTEQDSKDSTYSLSSTLTLSKADYEKHKVYACEVTHQGLSSPVTKSFNRGEC not shown | 2.92 | 0.000947 | 324000 | 0.732 | 1.68 | 0.000369 | 220000 | 0.592 | – | –
anti-c-Met single-arm antibody 74 (antibody, human IgG1, kappa, L234A L235A) heavy: not shown light: DIVMTQSPSSVSASVGDRVTITCRASQGINSWLAWYQQKPGKAPNLLIYAASSLQSGVPSRFSGRGSGTDFSLTISSLHPEDFATYYCQQAKGFPLTFGGGTKVEIKRTVAAPSVFIFPPSDEQLKSGTASVVCLLNNFYPREAKVQWKVDNALQSGNSQESVTEQDSKDSTYSLSSTLTLSKADYEKHKVYACEVTHQGLSSPVTKSFNRGEC not shown | 9.7 | 0.0026 | 269000 | – | 6.01 | 0.00108 | 179000 | – | 1.46 | 1.9
Amivantamab single-arm antibody (antibody, human IgG1, kappa, L234A L235A, also called control antibody Amivantamab) heavy: not shown light: DIQMTQSPSSVSASVGDRVTITCRASQGISNWLAWFQHKPGKAPKLLIYAASSLLSGVPSRFSGSGSGTDFTLTISSLQPEDFATYYCQQANSFPITFGQGTRLEIKRTVAAPSVFIFPPSDEQLKSGTASVVCLLNNFYPREAKVQWKVDNALQSGNSQESVTEQDSKDSTYSLSSTLTLSKADYEKHKVYACEVTHQGLSSPVTKSFNRGEC not shown | – | – | – | 0.396 | – | – | – | 0.2 | 0.241 | 0.323
LY2875358 single-arm antibody (antibody, human IgG1, kappa, L234A L235A, also called control antibody LY2875358) heavy: not shown light: DIQMTQSPSSLSASVGDRVTITCSVSSSVSSIYLHWYQQKPGKAPKLLIYSTSNLASGVPSRFSGSGSGTDFTLTISSLQPEDFATYYCQVYSGYPLTFGGGTKVEIKRTVAAPSVFIFPPSDEQLKSGTASVVCLLNNFYPREAKVQWKVDNALQSGNSQESVTEQDSKDSTYSLSSTLTLSKADYEKHKVYACEVTHQGLSSPVTKSFNRGEC not shown | – | – | – | 1.39 | – | – | – | 0.749 | 0.868 | 1.25
Onartuzumab (antibody, human IgG1, kappa, L234A L235A, Control antibody, made from three plasmids in Expi-CHO cells; also called control antibody onartuzumab; antibody onartuzumab) heavy: not shown light: DIQMTQSPSSLSASVGDRVTITCKSSQSLLYTSSQKNYLAWYQQKPGKAPKLLIYWASTRESGVPSRFSGSGSGTDFTLTISSLQPEDFATYYCQQYYAYPWTFGQGTKVEIKRTVAAPSVFIFPPSDEQLKSGTASVVCLLNNFYPREAKVQWKVDNALQSGNSQESVTEQDSKDSTYSLSSTLTLSKADYEKHKVYACEVTHQGLSSPVTKSFNRGEC not shown | – | – | – | 0.54 | – | – | – | 1.24 | 0.97 | 1.03
